Measured values taken from patent US20240101667A1 (University of Texas, published 2024).

B1: B3ICDhFc (LILRB3 intracellular domain fused to hFc at C-terminus) (Fc fusion)
chain: RRQRHSKHRTSDQRKTDFQRPAGAAETEPKDRGLLRRSSPAADVQEENLYAAVKDTQSEDRVELDSQSPHDEDPQAVTYAPVKHSSPRREMASPPSSLSGEFLDTKDRQVEEDRQMDTEAAASEASQDVTYAQLHSLTLRRKATEPPPSQEGEPPAEPSIYATLAIH
notes: domain: intracellular domain; also called B3ICD fused to human Fc; intracellular domain of LILRB3 alone; not shown: hFc (human Fc)
B2: anti-LILRB3 IgG #26 (antibody, V domains shown)
VH: QVQMVESGGGLVKPGGSLRLSCAASGFTFSDHYLSWIRQAPGKGLEWVSYIDLSGSTVYYGDSVKGRFTISRDNARNSVYLQMNSLRAEDTAVYYCARGHYGLDVWGQGTMVTVSS
VL: NIQMTQSPSTLSASVGDRVTISCRASQSIGTWLAWYQQKPGKAPQLLIYKASSLHSGVPSRFSGSGSGTEFTLTISSLQPDDFATYYCQQYNLYSRTFGQGTKVEIK
notes: Fully human IgG; also called B3-26
B3: anti-LILRB3 IgG #1 (antibody, V domains shown)
VH: EVQLVESGGGVVQPGRSLRLSCAASGFTFSSYGMHWVRQAPGKGLEWVAFIRYDGSNKYYADSVKGRFTISRDNSKNTLYLQMNSLRAEDTAVYYCAKAGFSGWYYYGMDVWGQGTMVTVSS
VL: DIVMTQSPSSLSASVGDRLTITCRASQSISTYLNWYQQKPGKAPKLLIYGASSLQSGVPSRFSGSGSGTDFTLTISSLQPEDFATYFCQQSYGLPLTFGGGTKVDIK
notes: Fully human IgG from scFv phage display; also called anti-LILRB3 #1; B3-1
B4: anti-LILRB3 antibody #32 (antibody, V domains shown)
VH: QVQLVQSGAEVKKPGSSVKVSCKASGGTFSSYAISWVRQAPGQGLEWMGGIIPIFGTANYAQKFQGRVTITADESTSTAYMELSSLRSEDTAVYYCARGWNWFDPWGQGTMVIVSS
VL: QSVLTQPPSVSADPGQKVTISCSGSSSNIGKNYVSWYQQLPGTAPKLLIYDDNRRLSGTPDRFSGSKSGTSATLGITGLQTGDEADYYCGAWDSSLSAYVFGTGTTVTVL
notes: Fully human IgG; Tied to clone 'B3-32' only by the clone number; also called B3-32
B5: HA-TRAF2 (exogenous, expressed in 293T cells) (other, human, UniProt Q12933 1-501, looked up)
chain: MAAASVTPPGSLELLQPGFSKTLLGTKLEAKYLCSACRNVLRRPFQAQCGHRYCSFCLASILSSGPQNCAACVHEGIYEEGISILESSSAFPDNAARREVESLPAVCPSDGCTWKGTLKEYESCHEGRCPLMLTECPACKGLVRLGEKERHLEHECPERSLSCRHCRAPCCGADVKAHHEVCPKFPLTCDGCGKKKIPREKFQDHVKTCGKCRVPCRFHAIGCLETVEGEKQQEHEVQWLREHLAMLLSSVLEAKPLLGDQSHAGSELLQRCESLEKKTATFENIVCVLNREVERVAMTAEACSRQHRLDQDKIEALSSKVQQLERSIGLKDLAMADLEQKVLEMEASTYDGVFIWKISDFARKRQEAVAGRIPAIFSPAFYTSRYGYKMCLRIYLNGDGTGRGTHLSLFFVVMKGPNDALLRWPFNQKVTLMLLDQNNREHVIDAFRPDVTSSSFQRPVNDMNIASGCPLFCPVSKMEAKNSYVRDDAIFIKAIVDLTGL
notes: also called exogenous HA-TRAF2; not shown: HA tag

Columns and labels:
[1] = biological target: FLAG-cFLIP (exogenous, expressed in 293T cells) (human, UniProt O15519 1-480); assay: co-immunoprecipitation of FLAG-cFLIP with hFc-tagged LILRB3 constructs in 293T cells (FIG. 5e)
From the text: (§1) Western blotting and co-immunoprecipitation. Cells were lysed with RIPA buffer containing protease inhibitor (Roche Diagnostic). Samples were mixed with 2×SDS loading buffer and separated by SDS-PAGE. After transfer to nitrocellulose membranes, the protein was detected with specific primary antibodies and HRP-conjugated secondary antibodies. […] For immunoprecipitation, cells were lysed with Pierce IP Lysis Buffer (Thermo Fisher Scientific, 87787). […] Dynabeads protein A (Thermo Fisher Scientific, 10001D) was used in all co-immunoprecipitation.

[2] = biological target: T1, recombinant LILRB3 (human LILRB3 extracellular domain protein) (human, UniProt O75022 24-443); assay: Octet (BLI), antibody on protein A biosensors, recombinant LILRB3 in solution
T1 construct: extracellular domain; The panning method names the 'human LILRB3 extracellular domain protein'; The Octet method says only 'recombinant LILRB3', and the antigen of the ELISA is not described; also called LILRB3-ECD
Method: Affinity measurement and epitope binning: Affinity measurement and epitope binning were done as described previously (Gui et al., 2019). Briefly, antibody affinity was analyzed with the Octet RED96 instrument. […] ForteBio's data analysis software was used to extract association and dissociation rates assuming a 1:1 binding model. The Kd was calculated as the ratio koff/kₒₙ. […] In these epitope binning assays, primary antibodies (40 μg/ml) were loaded onto protein A biosensors, and remaining Fc-binding sites on the sensor were blocked with a human non-targeting IgG (200 μg/ml). […] Raw data were processed using ForteBio's Data Analysis Software 7.0. Antibody pairs were assessed for competitive binding.

[3] = biological target: T2, LILRB3 with deletion of amino acids 505-515 (human, UniProt O75022 24-631); assay: co-immunoprecipitation in 293T cells
T2 construct: Deletion mutant; not shown: hFc tag, per the general co-immunoprecipitation method
From the text: as §1

[4] = biological target: T3, LILRB3 with amino acids 509-511 mutated from QEE to AAA (human, UniProt O75022 24-631); assay: co-immunoprecipitation in 293T cells
T3 construct: also called B3 AAA mutant; not shown: hFc tag, per the general co-immunoprecipitation method
From the text: as §1

FLAG-cFLIP (exogenous, expressed in 293T cells), sequence (O15519 whole entry): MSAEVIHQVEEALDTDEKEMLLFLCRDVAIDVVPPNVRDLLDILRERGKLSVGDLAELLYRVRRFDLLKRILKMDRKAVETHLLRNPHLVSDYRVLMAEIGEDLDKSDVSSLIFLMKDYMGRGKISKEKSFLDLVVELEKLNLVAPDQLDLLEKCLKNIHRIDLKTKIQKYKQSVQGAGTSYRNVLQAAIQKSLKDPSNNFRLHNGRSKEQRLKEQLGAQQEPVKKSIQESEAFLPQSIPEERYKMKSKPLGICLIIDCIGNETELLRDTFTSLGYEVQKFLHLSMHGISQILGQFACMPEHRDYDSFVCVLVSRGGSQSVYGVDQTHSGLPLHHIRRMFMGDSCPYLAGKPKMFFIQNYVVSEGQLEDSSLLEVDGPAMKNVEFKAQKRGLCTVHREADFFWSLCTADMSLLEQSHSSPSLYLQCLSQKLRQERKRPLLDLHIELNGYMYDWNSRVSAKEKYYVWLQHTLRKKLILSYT

Binder | binding result [2] | also measured
B1 |  | binding result [1]: no binding
B2 | binds | 
B3 | binds | 
B4 | binds | 
B5 |  | binding result [3]: no binding; binding result [4]: no binding
